Experimental data reported in patent publication US6906033 (dated 2005).
Substitutions are numbered along the chain they refer to. Like-named read-outs stand apart in the source and are kept apart here.

Assays:
Assay in all cases: enzyme inhibition
human factor XIIa [1] = biological target: T1, human factor XIIa (human, UniProt P00748 20-615, biotinylated with Biotin Ester (Zymed); sites not stated)
T1 chain: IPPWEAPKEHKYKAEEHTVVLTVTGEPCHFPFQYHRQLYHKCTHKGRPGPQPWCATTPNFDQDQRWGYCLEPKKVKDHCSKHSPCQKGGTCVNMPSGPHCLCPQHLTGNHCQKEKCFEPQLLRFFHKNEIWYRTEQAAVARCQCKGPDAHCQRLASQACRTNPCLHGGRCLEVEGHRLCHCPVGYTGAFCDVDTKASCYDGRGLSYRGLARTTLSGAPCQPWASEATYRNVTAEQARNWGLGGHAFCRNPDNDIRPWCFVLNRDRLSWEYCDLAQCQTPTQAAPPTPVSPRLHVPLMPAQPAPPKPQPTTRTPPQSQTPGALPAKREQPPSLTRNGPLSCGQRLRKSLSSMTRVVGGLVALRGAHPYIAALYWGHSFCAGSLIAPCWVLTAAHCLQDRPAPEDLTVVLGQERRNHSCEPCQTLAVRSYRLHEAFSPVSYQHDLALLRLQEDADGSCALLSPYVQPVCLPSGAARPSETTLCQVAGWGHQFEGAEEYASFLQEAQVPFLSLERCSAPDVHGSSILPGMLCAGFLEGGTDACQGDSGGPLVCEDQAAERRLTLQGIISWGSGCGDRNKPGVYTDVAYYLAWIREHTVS

human plasma kallikrein [2] = biological target: T2, human plasma kallikrein (human, UniProt P03952 20-638)
human factor Xa [3] = biological target: T3, human factor Xa (human, UniProt P00742 41-179; P00742 235-488)
T3 chain 1: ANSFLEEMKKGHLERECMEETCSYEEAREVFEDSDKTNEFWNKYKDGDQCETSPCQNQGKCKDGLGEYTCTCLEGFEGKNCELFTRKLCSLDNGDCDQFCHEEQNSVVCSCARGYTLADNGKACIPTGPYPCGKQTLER
T3 chain 2: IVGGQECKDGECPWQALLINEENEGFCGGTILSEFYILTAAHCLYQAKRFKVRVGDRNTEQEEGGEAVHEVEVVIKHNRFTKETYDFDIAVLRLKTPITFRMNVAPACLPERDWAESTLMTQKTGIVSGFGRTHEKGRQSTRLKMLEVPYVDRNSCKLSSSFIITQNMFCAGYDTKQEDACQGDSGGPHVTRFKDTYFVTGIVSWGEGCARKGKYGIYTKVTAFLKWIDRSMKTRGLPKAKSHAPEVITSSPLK

human factor XIIa [4] = biological target: T1, human factor XIIa
human plasma kallikrein [5] = biological target: T2, human plasma kallikrein; remark: listed apart in the source
human factor Xa [6] = biological target: T3, human factor Xa
human factor XIIa [7] = biological target: T1, human factor XIIa
human plasma kallikrein [8] = biological target: T2, human plasma kallikrein; remark: listed apart in the source
human factor Xa [9] = biological target: T3, human factor Xa
Plasmin [10] = biological target: Plasmin
Plasmin [11] = biological target: Plasmin; remark: listed apart in the source
human plasma kallikrein [12] = biological target: T2, human plasma kallikrein; remark: listed apart in the source
Plasmin [13] = biological target: Plasmin; remark: listed apart in the source

T2 sequence (P03952 20-638): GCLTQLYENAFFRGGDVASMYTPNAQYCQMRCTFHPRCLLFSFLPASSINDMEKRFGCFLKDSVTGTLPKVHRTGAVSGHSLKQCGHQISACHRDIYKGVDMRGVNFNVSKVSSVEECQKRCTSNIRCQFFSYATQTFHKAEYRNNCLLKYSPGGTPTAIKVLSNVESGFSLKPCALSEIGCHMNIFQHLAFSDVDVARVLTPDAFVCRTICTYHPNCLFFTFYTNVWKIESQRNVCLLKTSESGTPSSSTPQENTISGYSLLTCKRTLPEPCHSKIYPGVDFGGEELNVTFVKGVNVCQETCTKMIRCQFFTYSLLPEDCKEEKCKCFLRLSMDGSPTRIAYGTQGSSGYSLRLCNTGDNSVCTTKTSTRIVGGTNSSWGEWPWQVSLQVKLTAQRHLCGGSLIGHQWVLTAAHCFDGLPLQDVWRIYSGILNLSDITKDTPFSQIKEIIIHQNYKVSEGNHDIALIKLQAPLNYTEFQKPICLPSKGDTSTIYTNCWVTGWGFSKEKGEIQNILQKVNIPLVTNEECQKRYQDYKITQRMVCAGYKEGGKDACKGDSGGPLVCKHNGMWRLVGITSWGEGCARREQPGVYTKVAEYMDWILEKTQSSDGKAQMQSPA

B1: TW6202 (protein)
chain: EVVREVCSEQAETGPCRAGIWRWYFDVTEGKCAPFFYGGCGGNRNNFDTEEYCMAVCGSAI
B1 was tested, and the Ki (human factor XIIa [1]) was 1240 nM and the Ki (human plasma kallikrein [2]) was 128 nM.

B2: TW6205 (protein)
chain: B1 chain with G19L, W21S, R22A
Binder B2 has a Ki (human factor XIIa [1]) of 195 nM and a Ki (human factor Xa [3]) of 29 nM.

B3: TW6167 (protein)
chain: B1 chain with T13P, G19M, W21S
B3 gave a Ki (human factor XIIa [4]) of 3640 nM, a Ki (human plasma kallikrein [5]) of 61 nM and a Ki (human factor Xa [6]) of 288 nM.

B4: DD113 (protein)
chain: B1 chain with G19L, W21P
B4 was tested, and the Ki (human factor XIIa [1]) was 293 nM, the Ki (human plasma kallikrein [2]) was 0.85 nM and the Ki (human factor Xa [3]) was 74 nM.

B5: TW6175 (protein)
chain: B1 chain with G19L, W21F
In the case of B5, the Ki (human factor XIIa [1]) is reported as 35 nM and the Ki (human factor Xa [3]) is reported as 56 nM.

B6: TW6186 (protein)
chain: B1 chain with G19M, I20H, W21S, G41Y
B6 was tested, and the Ki (human factor XIIa [7]) was 186 nM, the Ki (human plasma kallikrein [8]) was 0.48 nM and the Ki (human factor Xa [9]) was 11 nM.

B7: DD185 (peptide)
chain: B1 chain with G19A, W21F
B7 showed a Ki (Plasmin [10]) of 8.71 nM.

B8: TW6184 (protein)
chain: B1 chain with G19M, I20H, W21Y
For B8, the Ki (human factor XIIa [1]) was 14000 nM and the Ki (human factor Xa [3]) was 214 nM.

B9: DD114 (protein)
chain: B1 chain with G19A, W21S, G41R
For B9, the Ki (human factor XIIa [1]) was 224 nM and the Ki (human plasma kallikrein [2]) was 0.7 nM.

B10: TW6183 (protein)
chain: B1 chain with G19M, I20H, W21F
With B10 the Ki (human factor XIIa [1]) was 12400 nM and the Ki (human factor Xa [3]) was 159 nM.

B11: TW6203 (protein)
chain: B1 chain with W21P
In the case of B11, the Ki (human factor XIIa [1]) is reported as 5040 nM and the Ki (human plasma kallikrein [2]) is reported as 31.2 nM.

B12: TW6204 (protein)
chain: B1 chain with G19A, W21S, R22A
In the case of B12, the Ki (human factor XIIa [1]) is reported as 147 nM and the Ki (human factor Xa [3]) is reported as 87 nM.

B13: BG003 (protein)
chain: B1 chain with G19M, I20L, W21H
In the case of B13, the Ki (human factor XIIa [1]) is reported as 467 nM and the Ki (human plasma kallikrein [2]) is reported as 36 nM.

B14: TW6190 (protein)
chain: B1 chain with G19A, W21S, G41Y
Work on B14 yielded a Ki (human factor XIIa [1]) of 589 nM, a Ki (human plasma kallikrein [2]) of 0.83 nM and a Ki (human factor Xa [3]) of 1400 nM.

B15: TW6187 (protein)
chain: B1 chain with G19M, W21F, G41Y
B15 was tested, and the Ki (human factor XIIa [7]) was 92 nM, the Ki (human plasma kallikrein [8]) was 3.8 nM and the Ki (human factor Xa [9]) was 15 nM.

B16: DD108 (protein)
chain: B1 chain with G19A, W21S
For B16, the Ki (human factor XIIa [4]) was 1600 nM, the Ki (human plasma kallikrein [5]) was 1.7 nM and the Ki (human factor Xa [6]) was 123 nM.

B17: TW6201 (protein)
chain: B1 chain with W21Y
For B17, the Ki (human factor XIIa [1]) was 419 nM and the Ki (human plasma kallikrein [2]) was 34.6 nM.

B18: DD109 (protein)
chain: B1 chain with G19I, W21S
B18 gave a Ki (human factor XIIa [4]) of 1680 nM, a Ki (human plasma kallikrein [5]) of 9.5 nM and a Ki (human factor Xa [6]) of 421 nM.

B19: DD110 (protein)
chain: B1 chain with G19L, W21S
B19 gave a Ki (human factor XIIa [4]) of 624 nM, a Ki (human plasma kallikrein [5]) of 2.1 nM and a Ki (human factor Xa [6]) of 55 nM.

B20: TW6169 (protein)
chain: B1 chain with G19L, W21L
B20 showed a Ki (human factor XIIa [1]) of 619 nM, a Ki (human plasma kallikrein [2]) of 1.2 nM and a Ki (human factor Xa [3]) of 111 nM.

B21: TW6188 (protein)
chain: B1 chain with G19M, W21Y, G41Y
In the case of B21, the Ki (human factor XIIa [7]) is reported as 419 nM, the Ki (human plasma kallikrein [8]) is reported as 4 nM and the Ki (human factor Xa [9]) is reported as 24 nM.

B22: TW6185 (peptide)
chain: B1 chain with G19M, I20H
B22 was tested, and the Ki (Plasmin [11]) was 18.6 nM.

B23: TW6189 (protein)
chain: B1 chain with G19M, G41Y
B23 was tested, and the Ki (human plasma kallikrein [8]) was 4 nM and the Ki (human factor Xa [9]) was 34 nM.

B24: wild-type KPI (-4→57) (peptide)
chain: LDKREVVREVCSEQAETGPCRAMISRWYFDVTEGKCAPFFYGGCGGNRNNFDTEEYCMAVCGSAI
In the case of B24, the Ki (human plasma kallikrein [12]) is reported as 45 nM, the Ki (human factor XIIa [4]) is reported as 3720 nM and the Ki (human plasma kallikrein [5]) is reported as 45 nM. For the same binder, the Ki (human factor Xa [6]) was 161 nM.

B25: KPI (-4-57) (peptide)
chain: B24 chain
In the case of B25, the Ki (Plasmin [13]) is reported as 34 nM.
